According to doi:10.1101/2021.03.07.432812 (bioRxiv, 2021):
Where no end group is shown, it is not given here. [ ]: non-standard residue; d: D form. Lys(Me3) = C[N+](C)(C)CCCC[C@H](N)C(=O)O; Lys(Me2) = CN(C)CCCC[C@H](N)C(=O)O; Lys(Me) = CNCCCC[C@H](N)C(=O)O

Legend:
[1] = target: T1, Spindlin1_(50-262) bound to DOCpep3 (human | , UniProt Q9Y657 50-262; Q9BUA3 256-281); assay: ITC
T1 chain 1: […]
T1 chain 2: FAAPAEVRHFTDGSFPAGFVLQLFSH

[2] = target: Spindlin1_(50-262) bound to DOCpep(1-3) (human | , UniProt Q9Y657 50-262; Q9BUA3 188-281); assay: ITC
Human Spindlin1 50-262 [3] = target: T2, Human Spindlin1 50-262 (human, UniProt Q9Y657 50-262); assay: ITC
Human Spindlin1 50-262 [4] = target: T2, Human Spindlin1 50-262; assay: thermal shift assay
SEC = target: the molecule itself; assay: SEC
native gel or EMSA = target: the molecule itself; assay: native gel or EMSA
Spindlin1 W151A = Spindlin1 W151A (human, UniProt Q9Y657 50-262, W151A); assay: ITC
Chain of Spindlin1 W151A (Q9Y657 50-262 W151A): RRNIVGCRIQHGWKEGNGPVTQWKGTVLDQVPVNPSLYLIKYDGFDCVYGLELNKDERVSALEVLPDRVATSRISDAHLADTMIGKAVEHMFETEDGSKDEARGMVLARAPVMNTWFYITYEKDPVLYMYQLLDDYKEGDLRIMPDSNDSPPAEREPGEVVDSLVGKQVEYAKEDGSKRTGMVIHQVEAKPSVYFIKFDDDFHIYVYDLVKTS

Spindlin1 Y177A = Spindlin1 Y177A (human, UniProt Q9Y657 50-262, Y177A); assay: ITC
Chain of Spindlin1 Y177A (Q9Y657 50-262 Y177A): as the sequence (Q9Y657 50-262 W151A) above, with A102W, Y128A counted along it

Spindlin1 F141A = Spindlin1 F141A (human, UniProt Q9Y657 50-262, F141A); assay: ITC
Chain of Spindlin1 F141A (Q9Y657 50-262 F141A): as the sequence (Q9Y657 50-262 W151A) above, with F92A, A102W counted along it

## ART[Lys(Me3)]QTAR[Lys(Me)]STGGKA [histone H3 1-15 K4me3K9me1 peptide]
[1]
  binding result: binds
[2]
  fold decrease of binding affinity in the presence of DOCpep(1-3): ~17 fold

## ART[Lys(Me3)]QTAR[Lys(Me3)]STGGKA [histone H3 1-15 K4me3K9me3 peptide]
[1]
  binding result: binds

B1: SPIN•DOC 184-240, the whole K/R-rich region (domain or fragment)
chain: NPSLPKRSRPRGLRPLELPAVPATEPGNKKPRGQRWKEPPGEEPVRKKRGRPMTKNL
Human Spindlin1 50-262 [3]
  Kd: 7.6 µM
  stoichiometry N: 0.5

B2: SPIN•DOC 188-281, DOCpep(1-3) (domain or fragment)
chain: PKRSRPRGLRPLELPAVPATEPGNKKPRGQRWKEPPGEEPVRKKRGRPMTKNLDPDPEPPSPDSPTETFAAPAEVRHFTDGSFPAGFVLQLFSH
Human Spindlin1 50-262 [4]
  binding result: binds

B3: full-length SPIN•DOC with N-terminal 6xHis tag, co-expressed with Spindlin1 (natural protein, UniProt Q9BUA3 1-381, looked up)
chain: MALKAEGAALDCFEVTLKCEEGEDEEEAMVVAVIPRPEPMLRVTQQEKTPPPRPSPLEAGSDGCEEPKQQVSWEQEFLVGSSPGGSGRALCMVCGAEIRAPSADTARSHILEQHPHTLDLSPSEKSNILEAWSEGVALLQDVRAEQPSPPNSDSGQDAHPDPDANPDAARMPAEIVVLLDSEDNPSLPKRSRPRGLRPLELPAVPATEPGNKKPRGQRWKEPPGEEPVRKKRGRPMTKNLDPDPEPPSPDSPTETFAAPAEVRHFTDGSFPAGFVLQLFSHTQLRGPDSKDSPKDREVAEGGLPRAESPSPAPPPGLRGTLDLQVIRVRMEEPPAVSLLQDWSRHPQGTKRVGAGDTSDWPTVLSESSTTVAGKPEKGNGV
SEC
  stoichiometry N: 2

B4: GFP-SPIN•DOC wild type (natural protein, UniProt Q9BUA3 1-381, looked up)
chain: MALKAEGAALDCFEVTLKCEEGEDEEEAMVVAVIPRPEPMLRVTQQEKTPPPRPSPLEAGSDGCEEPKQQVSWEQEFLVGSSPGGSGRALCMVCGAEIRAPSADTARSHILEQHPHTLDLSPSEKSNILEAWSEGVALLQDVRAEQPSPPNSDSGQDAHPDPDANPDAARMPAEIVVLLDSEDNPSLPKRSRPRGLRPLELPAVPATEPGNKKPRGQRWKEPPGEEPVRKKRGRPMTKNLDPDPEPPSPDSPTETFAAPAEVRHFTDGSFPAGFVLQLFSHTQLRGPDSKDSPKDREVAEGGLPRAESPSPAPPPGLRGTLDLQVIRVRMEEPPAVSLLQDWSRHPQGTKRVGAGDTSDWPTVLSESSTTVAGKPEKGNGV
Native gel or EMSA
  stoichiometry N: 2

B5: Flag-SPIN•DOC wild type (natural protein, UniProt Q9BUA3 1-381, looked up)
chain: MALKAEGAALDCFEVTLKCEEGEDEEEAMVVAVIPRPEPMLRVTQQEKTPPPRPSPLEAGSDGCEEPKQQVSWEQEFLVGSSPGGSGRALCMVCGAEIRAPSADTARSHILEQHPHTLDLSPSEKSNILEAWSEGVALLQDVRAEQPSPPNSDSGQDAHPDPDANPDAARMPAEIVVLLDSEDNPSLPKRSRPRGLRPLELPAVPATEPGNKKPRGQRWKEPPGEEPVRKKRGRPMTKNLDPDPEPPSPDSPTETFAAPAEVRHFTDGSFPAGFVLQLFSHTQLRGPDSKDSPKDREVAEGGLPRAESPSPAPPPGLRGTLDLQVIRVRMEEPPAVSLLQDWSRHPQGTKRVGAGDTSDWPTVLSESSTTVAGKPEKGNGV
Native gel or EMSA
  stoichiometry N: 2

## LPKRSRPRG [DOCpep1, SPIN•DOC 187-195 peptide]
Human Spindlin1 50-262 [3]
  Kd: 78 µM

## LPARSRPRG [DOCpep1 K189A peptide]
Human Spindlin1 50-262 [3]
  fold reduction of binding against wild-type DOCpep1: 9 fold

## LPKRSAPRG [DOCpep1 R192A peptide]
Human Spindlin1 50-262 [3]
  fold reduction of binding against wild-type DOCpep1: 11 fold

## ART[Lys(Me3)]QTAR[Lys(Me2)]STGGKA [histone H3 1-15 K4me3K9me2 peptide]
[1]
  binding result: binds
[2]
  fold decrease of binding affinity in the presence of DOCpep(1-3): ~4.5 fold

## VRKKRGRPMTKN (peptide, UniProt Q9BUA3 228-239, looked up) [DOCpep2, SPIN•DOC 228-239 peptide]
Spindlin1 W151A
  binding result: binds
Spindlin1 Y177A
  binding result: binds
Spindlin1 F141A
  binding result: binds
Human Spindlin1 50-262 [3]
  Kd: 31 µM
